# Measured values as given in the RNAGym collection of RNA variant scans (doi:10.1073/pnas.2313332121).
# This sample holds only a part of the variants without activity.
# B1: TPR 5TU (parent)
# chain: GGAUCUUCUCGAUCUAACAAAAAAGACAAAUCUGCCACAAAGCUUGAGAGCAUCUUCGGAUGCAGAGGCGGCAGCCUUCGGUGGCGCGAUAGCGCCAACGUUCUCAACUAUGACACGCAAAACGCGUGCUCCGUUGAAUGGAGUUUAUCAUG
# Variants of: B1
# Assay: polymerase ribozyme fitness, log enrichment relative to wild type (log ratio); higher = more active; in vitro selection for triplet polymerase activity
# Method in brief: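 Mutant libraries were PCR-built and transcribed for each subunit of a heterodimeric triplet polymerase ribozyme and selected for one round in triplicate at −7 °C, frozen, before gel excision of extended constructs and streptavidin-bead capture. Input and output libraries were Illumina-sequenced, keeping genotypes with ≥10 input reads and ≥1 read per output. Fitness is a logarithmic ratio of genotype to wild-type enrichment, in base 2, using inverse-variance-weighted replicate averages.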
row,Variant,polymerase ribozyme fitness (log ratio)
1,A30U G94C A150U,-3.55
2,A29C U45A C95G,≤ -4.2
3,U31C C85G A98G,-1.26
4,A28C A47C G62C C108G A122C,≤ -4.2
5,A29U G50C A52C A64C U77C G92C G94A C95A A115C U139G,≤ -4.2
6,U31C C76U C96U G136C U144C U148C,-3.9
7,A30G C76A C95A,≤ -4.2
8,A30U A49G,≤ -4.2
9,A28G G94C G100U U134G,≤ -4.2
10,A30U C69G C79A C87G G126A G140C,≤ -4.2
11,A29C U53A G84C C93U A121G C125G,≤ -4.2
12,A29C A52C G88U,≤ -4.2
13,U31C G70A A98G G124C,≤ -4.2
14,A30G C87A A91C A110U A115U U135C,≤ -4.2
15,A29U U101G U104G,≤ -4.2
16,A28U G67A G74A G86C C108A C132A,≤ -4.2
17,A29U U53C,≤ -4.2
18,A29U U53A,-4.15
19,U31G A37C U61A G126C U145C,≤ -4.2
20,A29G C43A G48C C93G G126C,≤ -4.2
21,U31C C36G U56A G70C G94A C129G,-3
22,A28C A40U U53A G84U A115U,≤ -4.2
23,A28C C57U U82C C85G U111G A137U,≤ -4.2
24,U31C G71A G86C C118A U151G,≤ -4.2

row,Variant,polymerase ribozyme fitness (log ratio)
1,U31C A41C A91C C95G U139A G143C,≤ -4.2
2,A28U A40U A49C G68U U90G C96U A107G A110C,≤ -4.2
3,A29U U45A G94C C105A A113U U130G U135G,≤ -4.2
4,A29G U56A U77C,≤ -4.2
5,A30U C54A U55G G86C C105A A119G G136U A142U,≤ -4.2
6,A29U A64C C85G,≤ -4.2
7,A29U U31G C72U G83C,≤ -4.2
8,A29U G84A,≤ -4.2
9,A30G U44A A49U C87U G88A G92A A115U,≤ -4.2
10,A29C U44A G59U C72U C131G,≤ -4.2
11,A29C G84A,-4.17
12,A28U C35U A91U C132U,-3.89
13,U31C G83C U111C G152A,-3.66
14,A30U C75G G84U C103G G124C,≤ -4.2
15,A30G A47G U56A G71C G117U A150U,≤ -4.2
16,A30U G50C,≤ -4.2
17,A28G A41C G42U A66G C96G G133U U144G,-4.13
18,A28G A106C G133U A142C,≤ -4.2
19,A30U G70A,≤ -4.2
20,A30G G42A C96G G100A U139C U148C,≤ -4.2
21,U31A C43U U44G G62A G71A U90G A91C,≤ -4.2
22,A30U C69U C85U A106G C123U A137G,≤ -4.2
23,U31A C38U C95U C96A,-1.16
24,A28U C87G U127A G133C U139A,-4.15

row,Variant,polymerase ribozyme fitness (log ratio)
1,U31A G58A U61A G84U A89C,-3.15
2,A29U A39C A40U U45G U77G,≤ -4.2
3,U31C C35U A41G C54U G86C,-2.75
4,A28U A40C C75U G83U G133A,≤ -4.2
5,A30U A40U C87G C103G G141A,-3.9
6,A30C G92A U104A A106C C108A,≤ -4.2
7,A28U C43A U109G G141C,≤ -4.2
8,A28G C32U G50A C85A,≤ -4.2
9,U31C C116A,1.96
10,A29G G46C A47C C132U U146A,-4.16
11,U31A A106G,0.863
12,A30U A52C U82A U101A G128A G136U G141C,≤ -4.2
13,A29U C54U G62A A113G U139G U148A,≤ -4.2
14,U31C U55A G86C,-2.47
15,A29U A47C U55G C87U A98G,≤ -4.2
16,A29U U31A U56G A66G C96U C105A A138U,≤ -4.2
17,A29G C103G U104G,≤ -4.2
18,U31C A52C U56A U82C A107U,≤ -4.2
19,A30G C32A C43A C93A C105A,≤ -4.2
20,A30G C85U G128A,≤ -4.2
21,A28U A29G C32U C57G,≤ -4.2
22,A28U U45A C57U A60G C75G G94A G126C,≤ -4.2
23,A28U G59U G74U C85G A113U C114A U127A,≤ -4.2
24,A30C U55G C95A U135G U148A,-3.85

row,Variant,polymerase ribozyme fitness (log ratio)
1,A28C A41U C43U G46C C85A U130G U135C,≤ -4.2
2,U31A G67U G83A C85A U104G C105U G136A,≤ -4.2
3,A30G A39U A52G U55G,-4.08
4,U31C C57A G83U C118U G124U A142C,-2.24
5,A29U G92C U102C C116U,≤ -4.2
6,A30G G50C C76U C103G,≤ -4.2
7,A29C C57G G71A U90C,≤ -4.2
8,U31A A49C C93U C118A A121U,≤ -4.2
9,A28U U61A G74C,≤ -4.2
10,A30U U77G G84U C129G G152C,≤ -4.2
11,A30C U31G U82A G92C C103A U134G,≤ -4.2
12,U31C C51A C69U G81A A91U G124A U144G,≤ -4.2
13,U31C A52C C54U U139C G143U,≤ -4.2
14,A30C A41C C57A G62C G92A C131G,≤ -4.2
15,A28U A29U G74C C79G A89C C118A A120U A122G C125G,≤ -4.2
16,A29C A37U C108U,-4.09
17,A28U G88A A107G A142C U151A,≤ -4.2
18,A30U U56G U82C G84U C95U,≤ -4.2
19,U31C A41G A66C G68C C95G,≤ -4.2
20,A29U G84U U135A,≤ -4.2
21,A28G A41G U45A G94C A97U,-3.76
22,A29U A37U C72G C95U C114U G143U,≤ -4.2
23,A30G G50U U55G U82A,≤ -4.2
24,A30G A49C G88U A110G,≤ -4.2

row,Variant,polymerase ribozyme fitness (log ratio)
1,A30U C51G A98U G136U,≤ -4.2
2,U31C U56G C123A G136C,-2.61
3,U31A G58C G74C U139C U146A,≤ -4.2
4,A29G A30U C43U G50A G67U C79G G88U C99A G141A,≤ -4.2
5,A28U C87U A106U C108U A119C U148C,≤ -4.2
6,A29U U44G A49C C103G G141C,≤ -4.2
7,A29U A89U G94A C116G G141A,≤ -4.2
8,A29U A37C G80A G88C G133U,≤ -4.2
9,A30C C36G U77G C116U C125U G133C,≤ -4.2
10,A30U C87U,-3.22
11,A28U U44A C87G A106C,≤ -4.2
12,A30U A49C G58A A119C G128U U134G,≤ -4.2
13,A29C A37C A64G C87A C95G U146G,≤ -4.2
14,A30U U55G C63U A110U G126U,-4.07
15,A29U U104C,-4.14
16,A28G C38A C54G G88C C103A,≤ -4.2
17,A28U A39U,≤ -4.2
18,A30C A52C G83U G84C U135A G141C,≤ -4.2
19,A28C G84U G88C A91G G124U,≤ -4.2
20,A29U G58U U61A U82A G86A A119G,≤ -4.2
21,U31A C54A G84U C85U,-2.6
22,A29G U31C C36U C54G U82C G86C C93U,≤ -4.2
23,A28C G58C,≤ -4.2
24,U31C C93U C131U,1.12

row,Variant,polymerase ribozyme fitness (log ratio)
1,A29U C54G U56G A60G,≤ -4.2
2,A29C A49G C69G U77G C79U C116U U146A,≤ -4.2
3,A30U U53A,-3.18
4,A29U G48A U61G G84U C85A C105U G126U,≤ -4.2
5,A29C A39G U139A,≤ -4.2
6,U31C G34A U78C G83C U145G,≤ -4.2
7,A30G A41U C69G C76U G94U U102G U130C,≤ -4.2
8,A30G U82G A122G U146G,-4.18
9,A30C C96G,-4.03
10,A29C C32U C35G A66U C87A G94C A107U C125U,≤ -4.2
11,A29U C76A C87A C93A C129A,≤ -4.2
12,U31C G143A,0.14
13,U31A C93G C95U C96A A113G,≤ -4.2
14,A30G A41C,-3.51
15,A28U G50C C54U C95A A107U G143U,≤ -4.2
16,U31A G70A C76A C96U,≤ -4.2
17,A29G G50A A52C U101G G133C,≤ -4.2
18,A28G G42C C43G U56C C85G G92A G124U A150U,≤ -4.2
19,U31C U45A A97U G117A,-4.09
20,U31A C75G C95U C118U,-3.7
21,A30U G74A C93G C103A A106G A113U,≤ -4.2
22,A28U C79A C87G C96G,≤ -4.2
23,A30U G92U,-3.52
24,A29U A40C G46A G67A G81A C85G A113C A137G,≤ -4.2

row,Variant,polymerase ribozyme fitness (log ratio)
1,C27U U61G U82G A89U A91G G100A A113U G140U,≤ -4.2
2,A29U C114U A137G G141A U148C,≤ -4.2
3,A30C G42A C54U G58A U90G C93G C96U C125A U148A,≤ -4.2
4,U31C G94C C105A,-1.61
5,A28C A52G C76G A91U U146G,≤ -4.2
6,A28G C93U C118A,≤ -4.2
7,A28U G42U G59C A64C U78C C87A,≤ -4.2
8,A28U U45A C57U A60C G84U A98U G117C,≤ -4.2
9,A30C C43G U45A C87A C103A,≤ -4.2
10,A30G G74U C93A U102C U127G C129G U144G,≤ -4.2
11,A29G G50A G67U C75G C85A C123G C125G C132U A142C,≤ -4.2
12,A29G C35A U56C C69G G71U A91G A98U A138G,≤ -4.2
13,A29C G48C C79A A122G G124U U144A U145G G152U,≤ -4.2
14,A28U A29G A40G C85G U90G U134G,≤ -4.2
15,A30G C85U,-3.06
16,A29U A52G U55C U134A,≤ -4.2
17,A30G A60U C85A C95A C96A C125U A150C,≤ -4.2
18,A30C C35U G88U C116G,-3.99
19,U31A C93U,0.0654
20,A30C C57U G81C C87G A97U U109G G141A,≤ -4.2
21,A29C A52G C87U G100C A138U U139A A147C,≤ -4.2
22,A30U C35U G84A,-4.19
23,A28C U33G G50A C95A U134A,≤ -4.2
